Measurements: article PMC4022432, “Complete steady-state rate equation for DNA ligase and its use for measuring product kinetic parameters of NAD^+-dependent DNA ligase from Haemophilus influenzae” (BMC Research Notes, 2014)

Substrate: NC(=O)c1ccc[n+]([C@@H]2O[C@H](COP(=O)(O)OP(=O)(O)OC[C@H]3O[C@@H](n4cnc5c(N)ncnc54)[C@H](O)[C@@H]3O)[C@@H](O)[C@H]2O)c1
Assay: purified protein
Conditions: co-substrate nicked DNA 10-80 nM; room temperature; value from NMN study
Source text: FRET nick-ligation assay, global nonlinear least-squares fit of NMN product inhibition on NAD^+-dependent DNA ligase from Haemophilus influenzae

B1: NAD^+-dependent DNA ligase from Haemophilus influenzae (Haemophilus influenzae Rd KW20) (protein)
chain: MTNIQTQLDNLRKTLRQYEYEYHVLDNPSVPDSEYDRLFHQLKALELEHPEFLTSDSPTQRVGAKPLSGFSQIRHEIPMLSLDNAFSDAEFNAFVKRIEDRLILLPKPLTFCCEPKLDGLAVSILYVNGELTQAATRGDGTTGEDITANIRTIRNVPLQLLTDNPPARLEVRGEVFMPHAGFERLNKYALEHNEKTFANPRNAAAGSLRQLDPNITSKRPLVLNAYGIGIAEGVDLPTTHYARLQWLKSIGIPVNPEIRLCNGADEVLGFYRDIQNKRSSLGYDIDGTVLKINDIALQNELGFISKAPRWAIAYKFPAQEELTLLNDVEFQVGRTGAITPVAKLEPVFVAGVTVSNATLHNGDEIERLNIAIGDTVVIRRAGDVIPQIIGVLHERRPDNAKPIIFPTNCPVCDSQIIRIEGEAVARCTGGLFCAAQRKEALKHFVSRKAMDIDGVGGKLIEQLVDRELIHTPADLFKLDLTTLTRLERMGAKSAENALNSLENAKSTTLARFIFALGIREVGEATALNLANHFKTLDALKDANLEELQQVPDVGEVVANRIFIFWREAHNVAVVEDLIAQGVHWETVEVKEASENLFKDKTVVLTGTLTQMGRNEAKALLQQLGAKVSGSVSSKTDFVIAGDAAGSKLAKAQELNITVLTEEEFLAQITR
In the case of B1, the Km is reported as 0.65 ± 0.08 µM.
